From US20200283536A1 (Pfizer, published 2020) come the findings set out here.

Where two headings read alike, the source gives them in different places.

What all share (assay): cell-based or functional assay
The target in experiment [1] is T1, CD123 (alpha chain of the interleukin-3 receptor) (human, UniProt P26951 19-378).
The target in experiment [2] is T1, CD123 (alpha chain of the interleukin-3 …). The source holds these as a separate data set.
The target is the same in experiment [3]. This is another data set of the same source.
Experiment [4] shares this target. This is another data set of the same source.

T1 sequence (P26951 19-378): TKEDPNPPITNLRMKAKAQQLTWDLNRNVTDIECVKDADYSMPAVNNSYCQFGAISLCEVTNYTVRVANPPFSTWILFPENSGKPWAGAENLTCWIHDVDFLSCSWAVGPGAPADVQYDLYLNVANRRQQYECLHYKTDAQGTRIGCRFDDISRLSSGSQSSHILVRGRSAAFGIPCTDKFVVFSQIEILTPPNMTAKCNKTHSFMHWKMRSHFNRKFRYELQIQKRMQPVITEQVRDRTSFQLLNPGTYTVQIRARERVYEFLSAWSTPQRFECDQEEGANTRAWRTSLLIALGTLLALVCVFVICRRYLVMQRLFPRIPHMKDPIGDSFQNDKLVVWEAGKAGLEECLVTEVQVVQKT

B1: 16D6-CPI (antibody, V domains shown)
VH: QVQLKESGPGLVAPSQSLSITCTVSGFSLTNFDISWIRQPPGKGLEWLGVMWTGGGTNYNSAFMSRLSISRDISKSQVSLKMSSLQTDDTAIYYCVRGDTYFFAMDYWGQGTSVTVSS
VL: DIVMSQSPSSLAVSAGEKVTMSCKSSQSLLSSGTRKNFLSWYQQKTGQSPKLLIYWASTRGSGVPDRFTGSGSGTDFTLTISSVQTEDLAVYYCKQSYNLYTFGGGTKLEIKR
modifications: CPI agent through an AcLysValCitPABC linker, DAR ~2; site not stated for this antibody
For the molecule B1, in experiment [1], the “IC50 (ng/mL), 2D in vitro cytotoxicity (CelltiterGlo, 96 hours), JVM3 cells (CD123 ++)” value was found to be 0.59 ng/mL; the “IC50 (ng/mL), 2D in vitro cytotoxicity (CelltiterGlo, 96 hours), MOLM13 cells (CD123 +++)” value (“IC50 (ng/mL), 2D … MOLM13 cells (CD123 +++)” for short) worked out at 0.22 ng/mL; the “IC50 (ng/mL), 2D in vitro cytotoxicity (CelltiterGlo, 96 hours), MV411 cells (CD123 +++)” value was determined as 0.4 ng/mL. Besides, in experiment [2], the “IC50 (ng/mL), cytotoxicity in MOLM13 cells, IL-3 at 0 ng/ml” value turned out to be 0.23 ng/mL; the “IC50 (ng/mL), cytotoxicity in MOLM13 cells, IL-3 at 0.3 ng/ml” value came to 0.23 ng/mL; the “IC50 (ng/mL), cytotoxicity in MOLM13 cells, IL-3 at 1 ng/ml” value is 0.19 ng/mL; the “IC50 (ng/mL), cytotoxicity in MV4-11 cells, IL-3 at 0 ng/ml” value came to 1.25 ng/mL. In experiment [2], the “IC50 (ng/mL), cytotoxicity in MV4-11 cells, IL-3 at 0.3 ng/ml” value came out at 1.13 ng/mL and the “IC50 (ng/mL), cytotoxicity in MV4-11 cells, IL-3 at 1 ng/ml” value is 1.13 ng/mL.

B2: h18G3-AcLysValCitPABC-DMAE-CO_CPI-000638314 (antibody, IgG1, V domains shown)
VH: EVQLVESGGGLVQPGGSLRLSCAASGFSLTSGDISWVRQAPGKGLEWVAVIWSGGGTNYGSRLMSRFTISRDNAKNSLYLQMNSLRAEDTAVYYCARDWGNFYFDYWGQGTLVTVSS
VL: DIQMTQSPSSLSASVGDRVTITCKSSQSLLSSGTRKNYLAWYQQKPGKAPKLLIYWASTRQSGVPSRFSGSGSGTDFTLTISSLQPEDFATYYCSQSYNLYTFGQGTKLEIKR
modifications: AcLysValCitPABC-DMAE-CO_CPI linker-agent conjugated site-specifically at Q296 (LLQG tag), DAR ~2
As to B2, in experiment [1], the “IC50 (ng/mL), 2D in vitro cytotoxicity (CelltiterGlo, 96 hours), Granta519 cells (CD123 ++)” value is 0.38 ng/mL; the “IC50 (ng/mL), 2D in vitro cytotoxicity (CelltiterGlo, 96 hours), JVM3 cells (CD123 ++)” value was determined as 0.69 ng/mL; the “IC50 (ng/mL), 2D … MOLM13 cells (CD123 +++)” value was 0.25 ng/mL; the “IC50 (ng/mL), 2D in vitro cytotoxicity (CelltiterGlo, 96 hours), MV411 cells (CD123 +++)” value came to 0.41 ng/mL. In experiment [1], the “IC50 (ng/mL), 2D in vitro cytotoxicity (CelltiterGlo, 96 hours), NB4 cells (CD123 +)” value stood at 63.9 ng/mL and the “IC50 (ng/mL), 2D in vitro cytotoxicity (CelltiterGlo, 96 hours), OCI-AML3 cells (CD123 +)” value was 2.65 ng/mL. Moreover, in experiment [2], the “IC50 (ng/mL), cytotoxicity in MOLM13 cells, IL-3 at 0 ng/ml” value turned out to be 0.14 ng/mL; the “IC50 (ng/mL), cytotoxicity in MOLM13 cells, IL-3 at 0.3 ng/ml” value is 0.12 ng/mL; the “IC50 (ng/mL), cytotoxicity in MOLM13 cells, IL-3 at 1 ng/ml” value turned out to be 0.14 ng/mL; the “IC50 (ng/mL), cytotoxicity in MV4-11 cells, IL-3 at 0 ng/ml” value amounted to 1.07 ng/mL. In experiment [2], the “IC50 (ng/mL), cytotoxicity in MV4-11 cells, IL-3 at 0.3 ng/ml” value amounted to 1.05 ng/mL and the “IC50 (ng/mL), cytotoxicity in MV4-11 cells, IL-3 at 1 ng/ml” value worked out at 0.21 ng/mL.

B3: 18G3 conjugated to iPr-calicheamicin (antibody, V domains shown)
VH: B2 VH
VL: B2 VL
modifications: iPr-calicheamicin conjugated; linker and site not stated
Turning to B3, in experiment [3], the “IC50 (ng/mL), in vitro cytotoxicity, MOLM13 cells (CD123 +++)” value amounted to 0.0508 ng/mL and the “IC50 (ng/mL), in vitro cytotoxicity, MV4-11 cells (CD123 +++)” value was determined as 0.125 ng/mL.

B4: 18G3 conjugated to CTI (glucuronide) (antibody, V domains shown)
VH: B2 VH
VL: B2 VL
modifications: CTI (glucuronide) agent conjugated; linker and site not stated
For the molecule B4, in experiment [4], the “IC50 (ng/mL), in vitro cytotoxicity, Granta519 cells (CD123 ++)” value is 0.26 ng/mL; the “IC50 (ng/mL), in vitro cytotoxicity, JVM3 cells (CD123 ++)” value was determined as 1.3 ng/mL; the “IC50 (ng/mL), in vitro cytotoxicity, MOLM13 cells (CD123 +++)” value was found to be 0.33 ng/mL; the “IC50 (ng/mL), in vitro cytotoxicity, MV411 cells (CD123 +++)” value turned out to be 0.51 ng/mL. Also, in experiment [4], the “IC50 (ng/mL), in vitro cytotoxicity, NB4 cells (CD123 +)” value was found to be 38.6 ng/mL and the “IC50 (ng/mL), in vitro cytotoxicity, OCI-AML3 cells (CD123 +)” value turned out to be 2.58 ng/mL.

B5: 3D1-CPI (antibody, V domains shown)
VH: EVQLQQSGPELVKPGASVKMSCKASGYTFSDYFMKWVKQSHGKRLEWIGDINPNNGETFYNHHFKGKATLTIDKSSSTAYMQLNSLTSDDSAVYYCARPRRGNAMDFWGQGTSVTVSS
VL: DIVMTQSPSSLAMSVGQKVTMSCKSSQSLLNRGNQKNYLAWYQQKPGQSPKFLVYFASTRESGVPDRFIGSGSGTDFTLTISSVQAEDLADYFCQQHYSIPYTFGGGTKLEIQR
modifications: CPI agent through an AcLysValCitPABC linker, DAR ~2; site not stated for this antibody
Consider B5, for which, in experiment [1], the “IC50 (ng/mL), 2D … MOLM13 cells (CD123 +++)” value stood at 0.33 ng/mL.

B6: 20D7-CPI (antibody, V domains shown)
VH: EVQLVESGGGLVQPGGSLRLSCAASGYSITDFLMYWVRQAPGKGLEWVAWIDPEDGETKYAQKFQSKARFTISRDNAKNSLYLQMNSLRAEDTAVYYCARWGYITDYFYGGFTYWGRGTLVTVSS
VL: DIQMTQSPPVLSASVGDRVTLSCKASQNINKNLDWYQQKHGEAPKLLIYHTNTLQMGIPSRFSGSGSGTDYALTITSLQPEDVATYYCYQYNSGPTFGAGTKLELRR
modifications: CPI agent through an AcLysValCitPABC linker, DAR ~2; site not stated for this antibody
Take B6: in experiment [1], the “IC50 (ng/mL), 2D … MOLM13 cells (CD123 +++)” value came to 0.32 ng/mL.
